Measurements reported in publication PMC7380208.

Target: Flt3 Receptor Interacting Lectin (FRIL) from Lablab purpureus (Lablab purpureus) (UniProt Q9ZTA9)
Assay: SEC-MALS

Work on “Flt3 Receptor Interacting Lectin (FRIL) from Lablab purpureus (from UniProt Q9ZTA9) (natural protein)” yielded a stoichiometry N of 4.
